{
  "source": "patent US20170096478A1",
  "about": "“THERAPEUTIC AGENT FOR INFLAMMATORY DISEASE” (Josai University Corporation, priority 2012, published 2017)",
  "molecules": {"B1": {"name": "SSV mAb: monoclonal antibody (IgG1) produced by Mouse-Mouse hybridoma SSV-C 93-3 (NITE BP-972), raised against peptide … (SEQ ID NO:1)-KLH conjugate (antibody, V domains shown)", "VH": "EIQLQQSGAELVKPGASVKISCKASGYSFTGYNMNWVKQSHGKSLEWIGNINPYYGSTSYNQKFKGKATLTVDKSSSTAYMQLNSLTSEDSAVYYCARSPYYSNYWRYFDYWGQGTTLTVSS", "VL": "QIVLSQSPAILSASPGEKVTMTCRASSSVSYMHWYQQKPGSSPKPWIYATSNLASGVPARFSGSGSGTSYSLTISRVEAEDAATYYCQQWSSNPWTFGGGTKLEIK"}},
  "key": {"histone H1": {"test_system": "histone H1", "experiment": "ELISA affinity for histone H1", "assay_type": "binding", "settings": "absorbance at 405 nm; 5 μg/mL antibody; compared among histones", "protocol": "The Affinities between histone H1 or core histone and SSVmAb were determined by ELISA.\nA 96 well microplate was coated with histone H1, H2A, H2B, H3 or H4. Each histone used was dissolved in 100 mM sodium carbonate buffer (pH 9.3). The plate was washed with PBS-tween 20 (0.05%), and blocked with 3% skim milk and 1% BSA for 1 hour. To each well, 5 μg/mL SSVmAb was added, and incubated for 1 hour. Bound SSVmAb was detected using peroxidase (HRP) conjugated anti mouse IgG1 Ab (SIGMA), and incubated for 1 hour. Bound SSVmAb was detected using the ABTS [2,2′-azino-bis(3-ethylbenzothiazoline-sulfonic acid)] substrate solution, and absorbance at 405 nm was measured using Multiskan Ascent (Thermo Fisher Scientific Inc., Waltham, Mass.).\nAfter the end of the tests, binding assays of SSV mAb with histone H1, histone H3 and histone H4 were carried out by ELISA in the same manner as Test Example 2."}, "[1]": {"test_system": "spleen lymphocytes from a naive DA rat (responsive cells) and from a LEW rat (stimulated cells)", "experiment": "MLR tests (mixed lymphocyte reaction, BrdU incorporation)", "assay_type": "cell-based", "protocol": "Spleen lymphocytes from a naive DA rat (responsive cells) and spleen lymphocytes from a LEW rat treated with mitomycin-C (Kyowa Hakko Kogyo Co., Ltd.) (stimulated cells) were used. The responsive cells were adjusted to 5×10^5 cells/mL with 10% FCS-RPMI culture medium, and the stimulated cells were adjusted to 8×10^6 cells/mL with 10% FCS-RPMI culture medium. After plating the responsive cell suspension and the stimulated cell suspension in an amount of 100 μL to a 96 well round-bottom plate (Nunc Brand Products) respectively, the monoclonal antibody 16G9mAb of Reference Example 1 (0.1, 2, 4, or 6 μg/mL/well) or the monoclonal antibody SSVmAb of Example 1 (4 μg/mL/well) was added at the start of mixed culture, and cultured for 3.5 days or longer under the conditions of 37° C., 5% CO2/95% air. In addition, an immunosuppressive agent tacrolimus (FK506: Fujisawa Pharmaceutical Co., Ltd., 1 nM/well) was added as a positive control. Further, 10 μL bromo deoxyuridine (BrdU) was added 15 hours before the end of culture. Then the proliferation potential of the cells treated with the immunosuppressive agent was measured using BrdU labeling & detection kit III (Roche Diagnostics K.K.) using the amount of BrdU incorporated into cellular DNA as an indicator."}, "[2]": {"test_system": "renal ischemia reperfusion injury", "experiment": "Test Example 9: acute renal failure due to renal ischemia reperfusion injury, check test 1", "assay_type": "in vivo, male Wistar rat", "settings": "autopsy after the end of the test; vs control group", "protocol": "Right kidney was removed from male Wistar rat (n=4) under general anesthesia, and then left kidney of the rat was subjected to ischemia reperfusion with vascular clip to prepare a model. For SSV mAb-administered group, SSV mAb was then administered in an amount of 10 mg/kg 30 minutes before preparing the model and immediately after the reperfusion For control group, IgG (SIGMA) was administered in place of SSV mAb in the same manner. Then, urea nitrogen (BUN) and creatinine (Cr) in serum at 24 hours after preparing the model were measured and the nephropathy level was evaluated. Further, the rats were subjected to autopsy after the end of the test, and histological evaluation was performed."}},
  "data": [
    {"molecule": "B1", "values": [
      {"measurement": "affinity for histone H1 (ELISA)", "setting": "histone H1", "result": "binding capacity"},
      {"measurement": "absorbance which indicates the amount of incorporated BrdU", "setting": "[1]; 4 μg/mL/well, mean±S.E.", "result": "0.552±0.114"},
      {"measurement": "absorbance (incorporated BrdU) compared with Reference Example 1 (16G9mAb) and tacrolimus (FK506)", "setting": "[1]; SSVmAb 4 μg/mL/well, FK506 1 nM/well", "result": "lower"},
      {"measurement": "mean absorbance of Example 1 relative to that of Reference Example 1", "setting": "[1]; same amount added, 4 μg/mL/well", "result": "about 41%"},
      {"measurement": "histological evaluation of kidney", "setting": "[2]", "result": "better than that of the control group"}
    ]}
  ]
}
